Results published in PMC4262935.
Like-named read-outs stand apart in the source and are kept apart here.

Key:
[1] = target: actin in thin filaments (mouse (endogenous in C57BL/6 ventricular myofibrils)) (UniProt P68033)
[2] = target: actin in thin filaments (mouse (endogenous in C57BL/6 ventricular myofibrils)) (UniProt P68033); remark: listed apart in the source

## myosin cross-bridge (from UniProt Q02566 1-1938; P09542 1-204; P51667 1-166) (complex)
[1]
  k3 (rate of dissociation of XBs from thin filaments, with ATP): 0.0492 s⁻¹
[2]
  k3 (rate of dissociation of XBs from thin filaments, with ATP): 0.061 s⁻¹
